± gives the standard deviation of the averaged measurements.
Legend:
[1] = system: Saccharomyces cerevisiae; assay: protein stability index of tFT-peptide fusion (C-terminal peptide) (PSI (0-1 scale)); higher = more stable (slower turnover)
Experimental: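 MPS profiling in S. cerevisiae of the tFT-X12 degron library: putative degron peptides plus stable controls, 12 aa, fused to the C-terminus of a sfGFP-mCherry timer. Cells are FACS-sorted into 8 mCherry/sfGFP bins and deep-sequenced. PSI runs from 0 (unstable) to 1 (stable). Backgrounds are wild type, das1Δ and doa10Δ at 30 °C, and wild type, das1Δ, cdc34-1 and cdc53-1 at 37 °C; 2-3 technical replicates each.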

[2] = system: Saccharomyces cerevisiae; assay: as above; details: genetic background: wild type; temperature: 30 C
[3] = genetic background: cdc34-1, temperature: 37 C
[4] = genetic background: cdc53-1, temperature: 37 C
[5] = genetic background: das1 deletion, temperature: 30 C
[6] = genetic background: das1 deletion, temperature: 37 C
[7] = genetic background: doa10 deletion, temperature: 30 C
[8] = genetic background: wild type, temperature: 30 C
[9] = genetic background: wild type, temperature: 37 C
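Note: PSI is a weighted mean of sequencing reads over stability bins, variants kept only with over 10 reads, mCherry proximal and sfGFP distal, peptide attached via GGGS linker.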

Sequence	protein stability index [1, 3]	protein stability index [1, 4]	protein stability index [1, 5]	protein stability index [1, 6]	protein stability index [1, 7]	protein stability index [1, 8]	protein stability index [1, 9]	protein stability index [2]
LVVFLRFFLRVL	0.105 ± 0.0097	0.106 ± 0.002	0.166 ± 0.028	0.265 ± 0.039	0.175 ± 0.003	0.114 ± 0.033	0.158 ± 0.016	0.199 ± 0.0035
LVVGCFLTFCFG	0.241 ± 0.013	0.366 ± 0.012	0.26 ± 0.028	0.441 ± 0.0089	0.212 ± 0.0024	0.236 ± 0.038	0.402 ± 0.0085	0.315 ± 0.028
LWFGAWWLGAVG	0.318 ± 0.031	0.361 ± 0.0043	0.411 ± 0.0063	0.336 ± 0.0087	0.4166 ± 0.0011	0.421 ± 0.0065	0.32 ± 0.013	0.457 ± 0.0053
LWGVGRQRNIAS	0.684 ± 0.033	0.758 ± 0.015	0.655 ± 0.038	0.769 ± 0.021	0.291 ± 0.036	0.304 ± 0.018	0.582 ± 0.021	0.41 ± 0.013
LWRRSLLLLRCC	0.0526 ± 0.0063	0.0759 ± 0.04	0.173 ± 0.029	0.244 ± 0.015	0.0637 ± 0.013	0.0611 ± 0.0038	0.0618 ± 0.0063	0.0946 ± 0.013
LWYVQILNIVLN	0.31 ± 0.018	0.388 ± 0.019	0.293 ± 0.048	0.4552 ± 0.0029	0.233 ± 0.024	0.249 ± 0.029	0.409 ± 0.013	0.328 ± 0.033
LYLEAYFCIFHF	0.356 ± 0.052	0.449 ± 0.0069	0.358 ± 0.025	0.422 ± 0.013	0.334 ± 0.017	0.327 ± 0.004	0.401 ± 0.015	0.36 ± 0.024
MALAVRVVVCGA	0.0333 ± 0.0083	0.0649 ± 0.022	0.125 ± 0.025	0.131 ± 0.0024	0.0868 ± 0.014	0.107 ± 0.02	0.107 ± 0.021	0.184 ± 0.043
MAMMQTILIIIH	0.0295 ± 0.01	0.158 ± 0.14	0.117 ± 0.044	0.186 ± 0.014	0.0894 ± 0.029	0.119 ± 0.026	0.173 ± 0.0081	0.171 ± 0.0028
MDLVSEYKIKVN	0.62 ± 0.026	0.712 ± 0.053	0.56 ± 0.034	0.704 ± 0.02	0.176 ± 0.006	0.226 ± 0.038	0.473 ± 0.0088	0.31 ± 0.004
MFRSEVSWKLCC	0.619 ± 0.071	0.727 ± 0.015	0.624 ± 0.019	0.753 ± 0.011	0.1344 ± 0.00047	0.174 ± 0.025	0.409 ± 0.025	0.285 ± 0.054
MSCILFCCLVPF	0.545 ± 0.039	0.57 ± 0.034	0.423 ± 0.023	0.568 ± 0.014	0.381 ± 0.012	0.402 ± 0.029	0.549 ± 0.017	0.4748 ± 0.0035
NASWAFLCYFCV	0.646 ± 0.03	0.69 ± 0.013	0.538 ± 0.018	0.68493 ± 0.0006	0.347 ± 0.018	0.374 ± 0.022	0.557 ± 0.04	0.481 ± 0.028
NMRYRATIEACA	0.258 ± 0.043	0.319 ± 0.0071	0.222 ± 0.029	0.397 ± 0.005	0.174 ± 0.021	0.226 ± 0.029	0.38 ± 0.023	0.356 ± 0.0097
NTYKICVVSVTS	0.449 ± 0.014	0.552 ± 0.021	0.355 ± 0.047	0.587 ± 0.0069	0.267 ± 0.019	0.299 ± 0.035	0.578 ± 0.018	0.413 ± 0.018
NYVFRIIIVLDA	0.269 ± 0.01	0.408 ± 0.11	0.267 ± 0.035	0.429 ± 0.042	0.227 ± 0.059	0.245 ± 0.011	0.349 ± 0.031	0.444 ± 0.0058
PALYLSLWFLFP	0.534 ± 0.056	0.606 ± 0.023	0.445 ± 0.043	0.603 ± 0.023	0.452 ± 0.013	0.456 ± 0.037	0.5761 ± 0.0011	0.512 ± 0.045
PAVRRLTGLMLM	0.6812 ± 0.0047	0.7493 ± 0.0057	0.612 ± 0.014	0.737 ± 0.024	0.276 ± 0.011	0.321 ± 0.0051	0.566 ± 0.022	0.413 ± 0.011
PCNVLWYSLFLF	0.487 ± 0.015	0.597 ± 0.025	0.452 ± 0.027	0.597 ± 0.018	0.175 ± 0.018	0.19 ± 0.017	0.34 ± 0.0062	0.271 ± 0.0091
PFAGRLWVTSSF	0.707 ± 0.052	0.7726 ± 0.005	0.671 ± 0.011	0.7908 ± 0.0063	0.685 ± 0.021	0.674 ± 0.022	0.7558 ± 0.0072	0.752 ± 0.035

Sequence	protein stability index [1, 3]	protein stability index [1, 4]	protein stability index [1, 5]	protein stability index [1, 6]	protein stability index [1, 7]	protein stability index [1, 8]	protein stability index [1, 9]	protein stability index [2]
PFYQSGGLVVVV	0.58 ± 0.024	0.63 ± 0.017	0.469 ± 0.034	0.62927 ± 0.00041	0.437 ± 0.021	0.464 ± 0.023	0.583 ± 0.029	0.21 ± 0.039
PGHICVPVLGTA	0.453 ± 0.021	0.467 ± 0.0061	0.348 ± 0.037	0.513 ± 0.0077	0.3072 ± 0.003	0.357 ± 0.027	0.517 ± 0.036	0.447 ± 0.027
PGSIGVVIAVRS	0.461 ± 0.019	0.512 ± 0.013	0.345 ± 0.044	0.574 ± 0.02	0.2863 ± 0.0007	0.363 ± 0.015	0.517 ± 0.0066	0.464 ± 0.0078
PGVWVVILRWWV	0.0876 ± 0.044	0.179 ± 0.011	0.123 ± 0.02	0.243 ± 0.035	0.0879 ± 0.0095	0.0841 ± 0.034	0.182 ± 0.011	0.152 ± 0.01
PIHILTHTYIGR	0.669 ± 0.028	0.7695 ± 0.00066	0.636 ± 0.025	0.719 ± 0.013	0.643 ± 0.014	0.664 ± 0.012	0.707 ± 0.013	0.738 ± 0.018
PILRGRPTPAIL	0.691 ± 0.031	0.731 ± 0.013	0.662 ± 0.018	0.7426 ± 0.0046	0.681 ± 0.018	0.668 ± 0.023	0.7026 ± 0.0044	0.708 ± 0.021
PLLVVPVPRALY	0.675 ± 0.082	0.72 ± 0.0074	0.626 ± 0.011	0.733 ± 0.018	0.242 ± 0.0057	0.281 ± 0.013	0.491 ± 0.038	0.382 ± 0.021
PLYFSVFSLLFL	0.522 ± 0.03	0.556 ± 0.048	0.489 ± 0.015	0.631 ± 0.025	0.478 ± 0.026	0.41 ± 0.021	0.539 ± 0.013	0.473 ± 0.012
PPLLLFLSLAFL	0.322 ± 0.02	0.407 ± 0.012	0.285 ± 0.027	0.449 ± 0.015	0.239 ± 0.012	0.271 ± 0.028	0.441 ± 0.009	0.381 ± 0.054
PPPLPPPSPSRP	0.66 ± 0.024	0.7072 ± 0.0012	0.677 ± 0.02	0.7025 ± 0.0061	0.695 ± 0.026	0.6727 ± 0.0031	0.68331 ± 0.00024	0.421 ± 0.0055
PPPPPPLPSSFP	0.679 ± 0.024	0.749 ± 0.0084	0.645 ± 0.009	0.7094 ± 0.0028	0.666 ± 0.033	0.655 ± 0.01	0.7063 ± 0.0068	0.449 ± 0.026
PPPYPPPPARSL	0.6336 ± 0.00079	0.6951 ± 0.0027	0.673 ± 0.016	0.6884 ± 0.0056	0.6825 ± 0.0033	0.689 ± 0.022	0.6823 ± 0.0034	0.5 ± 0.014
PPRPLHPPCRPP	0.64 ± 0.021	0.6975 ± 0.00072	0.66 ± 0.033	0.6943 ± 0.0015	0.659 ± 0.024	0.657 ± 0.013	0.688 ± 0.011	0.702 ± 0.013
PPSPPLPPPSPF	0.671 ± 0.013	0.773 ± 0.019	0.69 ± 0.0097	0.742 ± 0.041	0.694 ± 0.036	0.67 ± 0.018	0.707 ± 0.016	0.34 ± 0.046
PPSPPPPPPSPF	0.695 ± 0.031	0.7371 ± 0.0055	0.683 ± 0.0043	0.7378 ± 0.0022	0.721 ± 0.031	0.679 ± 0.033	0.719 ± 0.034	0.304 ± 0.025
PRHERPPRDNGH	0.674 ± 0.041	0.72232 ± 0.00022	0.655 ± 0.011	0.73 ± 0.013	0.6522 ± 0.0063	0.654 ± 0.025	0.702 ± 0.022	0.709 ± 0.025
PRPSPPLPPPSS	0.665 ± 0.082	0.712 ± 0.011	0.643 ± 0.027	0.739 ± 0.019	0.673 ± 0.032	0.677 ± 0.021	0.688 ± 0.017	0.4726 ± 0.0028
PRRVTVPGVPPL	0.672 ± 0.018	0.736 ± 0.033	0.669 ± 0.035	0.737 ± 0.014	0.643 ± 0.01	0.66 ± 0.01	0.7039 ± 0.0025	0.71 ± 0.014
PRSLHVLSRFLP	0.692 ± 0.06	0.7371 ± 0.0014	0.651 ± 0.017	0.763 ± 0.037	0.599 ± 0.048	0.606 ± 0.031	0.712 ± 0.02	0.691 ± 0.018

From the supplement of paper PMC10724198
